Paper PMC4482781 (Nature neuroscience, 2015)

Columns and labels:
[1] = tested on: AD–derived endothelial monolayers; experiment: Aβ transcytosis across AD–derived endothelial monolayers; type: in vitro ADME, human; details: Aβ40 (1 nM) per Fig. 8b
[2] = tested on: primary human brain endothelial cells (BEC); experiment: Colocalization of Aβ–LRP1 complex with PICALM by immunostaining in BEC; type: cell-based; details: 250 nM, 30 s

Substance | Aβ transport improved by co–transfer of PICALM and LRP1 mini–gene [1] [%] | Aβ transcytosis improved by adenoviral–mediated transfer of PICALM ([1]; compared to GFP control) [%] | colocalized Aβ–LRP1/PICALM puncta [2]
Aβ: amyloid β–peptide, isoform not named at the place; Aβ40 (1 nM) by legend of Fig. 8 | 89 | 63 | 
FAM–Aβ42: 6-carboxyfluorescein-labeled Aβ42, Anaspec catalog # 23526 |  |  | rapid increase
